Biological target: the molecule itself
Experiment: fluorescence polarisation

B1: Wild-type FokI restriction endonuclease (enzyme)
chain: KIRTFGWVQNPGKFENLKRVVQVFDRNSKVHNEVKNIKIPTLVKESKIQKELVAIMNQHDLIYTYKELVGTGTSIRSEAPCDAIIQATIADQGNKKGYIDNWSSDGFLRWAHALGFIEYINKSDSFVITDVGLAYSKSADGSAIEKEILIEAISSYPPAIRILTLLEDGQHLTKFDLGKNLGFSGESGFTSLPEGILLDTLANAMPKDKGEIRNNWEGSSDKYARMIGGWLDKLGLVKQGKKEFIIPTLGKPDNKEFISHAFKITGEGLKVLRRAKGSTKFTRVPKRVYWEMLATNLTDKEYVRTRRALILEILIKAGSLKIEQIQDNLKKLGFDEVIETIENDIKGLINTGIFIEIKGRFYQLKDHILQFVIPNRGVTKQLVKSELEEKKSELRHKLKYVPHEYIELIEIARNSTQDRILEMKVMEFFMKVYGYRGKHLGGSRKPDGAIYTVGSPIDYGVIVDTKAYSGGYNLPIGQADEMQRYVEENQTRNKHINPNEWWKVYPSSVTEFKFLFVSGHFKGNYKAQLTRLNHITNCNGAVLSVEELLIGGEMIKAGTLTLEEVRRKFNNGEINF
- binding result: binds
